Data as given in publication PMC12090729.
Where two headings read alike, the source gives them in different places.

What was measured:
[1] = glycan lost
[2] = anti-ACE2 western blot, HEK293T lysates; conditions: glycan lost; control: WT hACE2
[3] = confocal immunofluorescence, HeLa cells; conditions: glycan lost; control: WT hACE2
[4] = qRT-PCR of viral N RNA, transfected HEK293T; conditions: glycan lost; control: WT hACE2
[5] = flow cytometry, surface/total MFI ratio, HeLa; conditions: glycan lost; control: WT hACE2
[6] = VSVpp infection, BFP+ cells, HEK293T without TMPRSS2; conditions: glycan lost; control: WT hACE2
[7] = syncytia formation, GFP+ area, co-transfected HEK293T; conditions: glycan lost; control: WT hACE2

| Substance | other: Camostat sensitivity of S-mediated entry [1] | other: susceptibility to genuine virus infection [1] | other: viral entry receptor function, fold_change [1] | other: viral entry receptor function ([1]; control: WT hACE2) | expression_or_secretion [2] | localisation_or_trafficking [3] | other: susceptibility to genuine virus infection [4] | localisation_or_trafficking [5] | other: viral entry receptor function [6] | other: susceptibility to genuine virus infection, fold_change [4] | other: susceptibility to genuine virus infection, fold_change [1] | other: cell-cell fusion [1] | other: cell-cell fusion [7] |
| --- | --- | --- | --- | --- | --- | --- | --- | --- | --- | --- | --- | --- | --- |
| hACE2 (angiotensin-converting enzyme 2): N322A | decreases | increases | increases | no change | no change | no change | decreases | no change | increases |  |  |  |  |
| hACE2 (angiotensin-converting enzyme 2): N432A |  |  | no change |  | no change | no change |  | no change |  |  |  |  |  |
| hACE2 (angiotensin-converting enzyme 2): N690A |  |  | increases |  | no change | no change | no change | no change | increases | no change |  |  |  |
| hACE2 (angiotensin-converting enzyme 2): N546A |  |  | no change |  | no change | no change |  | no change |  |  |  |  |  |
| hACE2 (angiotensin-converting enzyme 2): N90A |  | no change | no change |  | no change | no change |  | no change |  |  | increases |  |  |
| hACE2 (angiotensin-converting enzyme 2): N53A |  |  | no change |  | no change | no change |  | no change |  |  |  | decreases | no change |
| hACE2 (angiotensin-converting enzyme 2): N103A |  |  | no change |  | no change | no change |  | no change |  |  |  |  |  |
| hACE2 (angiotensin-converting enzyme 2): T92I |  |  |  |  | no change | no change |  | no change |  |  |  |  |  |
